Measured values: the nanobody polyreactivity screen of Harvey et al. (2022)

test: yeast display, Sf9 membrane polyspecificity reagent, FACS + sequencing; frameworks hold sequencing errors
Summary of the method: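 In a synthetic yeast display library (Saccharomyces cerevisiae BJ5465), nanobody expression was induced with galactose for 36–48 hours. FACS gates were set low and high (top ~1%) using anti-HA fluorescence for expression and streptavidin fluorescence for binding of the Sf9 membrane reagent. Each polyreactivity label is drawn from the gate of origin.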

For “QVQLVESGGGLVQAGGSLRLSCAASGFIFLGNAKGWYRQATGKERELVAAISSGGSTYADSVKGRFTISRDNAKNTVYLQMNSLKPEDTAVYYCAVDRAFRAQNYHEYDYWGQGTQVTVSS”, which “polyreactivity (PSR sort gate)” value is on record?
Its value is “low polyreactivity”.

Which “polyreactivity (PSR sort gate)” value does the source give for “QVQLVESGGGLVQAGGSLRLSCAASGSISYQNAMGWYRQAPGKERELVAAISGDGDSTYYADSVKGRFTISRDNAKNTVYLQMNSLKPEDTAVYYCAAEPNVYFSVFVLFPYDYWGQGTQVTVSS” here?
The value was “low polyreactivity”.

Which “polyreactivity (PSR sort gate)” value does the source give for “QVQLVESGGGLVQAGGSLRLSCAASGSIFDDYAMGWYRQATGKERQLVAAISSSGTSTYYADSVKGRFTISRDNAKNTVYLQMNSLKPEDTAVYYCAARSAILKSGYLMDYWGQGTQVTVSS” here?
Its value is “low polyreactivity”.

Which “polyreactivity (PSR sort gate)” value does the source give for “QVQHVESGGGLVQAAGSLRLSCAASGTTLSSYAMGWSRQAPGKVRELVAAINSSGGRTYYADSVKGRFTISRDNAKNTVYLQMNSLKPDDTAVYYCAATRGRYREYEDYWGQGTQVTVSS” here?
Its value is “high polyreactivity”.

With “QVQLVESGGRLVQAGGSLRLSCAASGSTFYPYAMGWYRQAPGKERELVAAINGNGGRTYYADSVKGRFTISRDNAKNTVYLQMNSLKPEDTAVYYCAVVRVAWGHRSDYWGQGTQVTVSS” as the sequence, how does the “polyreactivity (PSR sort gate)” value read?
Its value is “high polyreactivity”.

Which “polyreactivity (PSR sort gate)” value does the source give for “QVQLVESGGGLVQAGGSLRLSCAASGSIFTDNAMGWYRQAPGKERELVAAITSNGGSTYYADSVKGRFTISRDNAKNTVYLQMNSLKPEDTAVYYCAADSLYREDDYWGQGTQVTVSS” here?
The value was “low polyreactivity”.

For “QVQLVESGGGLVQAGGSLRLSCAASGFIFGRYAMGWYRQAPGKERELVAAISSGDDTDYADSVKGRFTISRDNAKNTVYLQMNSLKPEDTAVSYCARSRFWSPVIYRRTIEFDSWGQGTQVTVSS”, which “polyreactivity (PSR sort gate)” value is on record?
The value was “low polyreactivity”.

For “QLQLVESGGGLVQAGGSLRLSCAASGIIFYWNAMGWYRQAPGKEREFVASISGSGGSTYADSVKGRFTISRDNAKNTVYLQMNSLKPEDTAVYYCAADFSNVGVQHDYYWGQGTQVTVSS”, which “polyreactivity (PSR sort gate)” value is on record?
The value was “high polyreactivity”.

With “QVQLVESGGGLVQAGGSLRLSCAASGLTFTWYTMGWYRQAPGKERELVAAITSGGSTNYADSVKGSFTISRDNAKNTVYLQMNSLKPEDTAVYYCAASRTFYWWEYGYWGQGTQVTVSS” as the sequence, how does the “polyreactivity (PSR sort gate)” value read?
The value was “high polyreactivity”.

Which “polyreactivity (PSR sort gate)” value does the source give for “QVQLVESGGGLVQAGGSLRLTCAASGGTFQPNAMGGYRQAPGKERELVAAISWSDGSTYYADSVKGRFTISRDNAKNTVYLQMKSLKPVDTAVYYCAADFTYYDSPYRDYNYESWGQGTQVTVSS” here?
Its value is “low polyreactivity”.

For “QVQLVESGGGLVQAGGSLRLSCAASGSNFPSYAMGWYTKAPGEEMEFVARISRGDDSTYYADSVKGRFTISRDNAKNTVYLQMNSLKPEDTAVYYCAADYPDVVYLEYDYWGQGTQVTVSS”, which “polyreactivity (PSR sort gate)” value is on record?
The value was “low polyreactivity”.

With “QVQLVESGGGLVQAGGSLRLSCAASGRIFVYYTMGWYRQAPGKERELVAAISTGGRTHYADSVKGRFTISRDNAKNTVYLQMNSLKPEDTAVYYCNAASWNGGLFQTKYGYWGQGTQVTVSS” as the sequence, how does the “polyreactivity (PSR sort gate)” value read?
Its value is “high polyreactivity”.

With “QVQLVESRGGLVQAGGSLRLSCAASGRILYVNDMGWYRQAPRKERELVAAISWRGGRTYYADSVKGRFTISRDNAKNTVYLQMNSLKPEDTAVYYCAARARGGYQRDYYWGQGTQVTVSS” as the sequence, how does the “polyreactivity (PSR sort gate)” value read?
The value was “high polyreactivity”.

For “QDQLVESGGGLVQAGGSLRLSCAACGIMFGKYAMGWYREAPGKERELVAAITWSGGRTYYADSVTGRFTISRANAKNTVYLPMNSLKPEDTAVYYCAADVKYGYDWGQGTQVTVSS”, which “polyreactivity (PSR sort gate)” value is on record?
The value was “high polyreactivity”.

With “QVQLVESGGGLVQAGGSLRLSCSASGGTFRYYTMVWYRKAPGKERELVAAITRGGRTYYADSVKGRFTISRDNAKNTVYLQMNSLKPEDTAVYYCAAVRPRSPVSYENDYWGQGTQVTVSS” as the sequence, how does the “polyreactivity (PSR sort gate)” value read?
The value was “high polyreactivity”.

With “QVQLVESGGGLVQAGGSLRISSAASGSTFFRYDLGWYRPAPGKEWELVAAITASGTRTYYADSVKGRFTISRDNAKNTVYLQMNSLKPEDTAVYYCAADSRRYGYDYWGQGYQVTVSS” as the sequence, how does the “polyreactivity (PSR sort gate)” value read?
Its value is “high polyreactivity”.

Which “polyreactivity (PSR sort gate)” value does the source give for “QVQLVESGGGLVQAGGSLRLSCAASGFIFETYAMGWYRQAPGKERELVAAISRGASTYYADSVKGRFTISRDNAKNTVSLQMNSLKQEDTGVYYCAAKRLSWHRYGYWGQGTQVTVSS” here?
The value was “low polyreactivity”.
